Test results reported in patent publication US20120121583A1 (Genentech, published 2012).

T1: Human recombinant soluble TWEAK (human, UniProt O43508 99-249)
T1 sequence: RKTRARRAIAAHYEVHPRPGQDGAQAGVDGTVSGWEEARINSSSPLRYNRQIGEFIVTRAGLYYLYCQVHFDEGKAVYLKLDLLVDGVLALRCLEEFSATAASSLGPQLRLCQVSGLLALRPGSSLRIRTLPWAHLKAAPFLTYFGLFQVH

T2: human Flag-tagged soluble TWEAK (amino acids 106-249) (human, UniProt O43508 106-249)
T2 construct: N-terminal placement here is only an order of listing; not shown: Flag tag
T2 sequence: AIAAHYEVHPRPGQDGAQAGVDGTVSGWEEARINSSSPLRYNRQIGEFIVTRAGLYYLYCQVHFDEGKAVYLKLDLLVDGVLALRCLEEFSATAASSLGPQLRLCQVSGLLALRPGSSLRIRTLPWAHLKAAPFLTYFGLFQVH

T3: Biotinylated TWEAK (Homo sapiens (Human), UniProt O43508 99-249, Biotinylated for capture on the streptavidin sensor; the site or sites of biotinylation are not stated. The active form is a soluble homotrimer; one protomer is given.)
T3 sequence: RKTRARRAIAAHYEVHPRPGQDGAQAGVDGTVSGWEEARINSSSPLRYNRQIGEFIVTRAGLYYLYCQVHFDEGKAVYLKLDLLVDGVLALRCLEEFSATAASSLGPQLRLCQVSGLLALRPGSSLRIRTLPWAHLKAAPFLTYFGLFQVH

T4: Biotinylated human soluble TWEAK (amino acids 99-249 of SEQ ID NO: 60) (human, UniProt O43508 99-249, biotinylated (sites not given))
T4 construct: Immobilised on the streptavidin sensor in the Biacore half-life assay; also called Human TWEAK; soluble human TWEAK
T4 sequence: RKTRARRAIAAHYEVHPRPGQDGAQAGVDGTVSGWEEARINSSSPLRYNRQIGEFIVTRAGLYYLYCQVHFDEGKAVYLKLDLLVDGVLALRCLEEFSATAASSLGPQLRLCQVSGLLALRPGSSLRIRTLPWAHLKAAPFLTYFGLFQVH


Legend:
[1] = target: T1, Human recombinant soluble TWEAK; test: cell-based or functional assay
[2] = target: T2, human Flag-tagged soluble TWEAK (amino …); test: competition ELISA: antibody pre-incubated with human Flag-TWEAK 2.5 ng/ml, binding to coated human Fn14:Fc
Experimental: 96-well Maxisorp® plates (Nunc) were coated with 100 μl 1 μg/ml human Fn14:Fc (extracellular domain of human Fn14 (amino acids 1-75) fused to Fc portion of human IgG1) in PBS per well for 1.5 h at room temperature and blocked with a solution of 5% FBS in PBS for 30 minutes at room temperature under shaking. […] Wells were filled with 100 μl of anti-FLAG-HRP detection antibody, diluted 1:5000 in blocking buffer, and incubated for 1 h at room temperature. After four more wash steps, the signal was developed by addition of 100 μl 3,3,5,5-Tetramethylbenzidine (TMB) solution for approximately ten minutes. The reaction was stopped by adding 100 μl of 1 N HCl, and absorbance measured at 450 nm (reference wavelength 620 nm).

[3] = target: Mouse soluble TWEAK (mouse) (UniProt O54907); test: competition ELISA: antibody pre-incubated with mouse soluble TWEAK 4 ng/ml, binding to coated mouse Fn14:Fc
Biotinylated TWEAK [4] = target: T3, Biotinylated TWEAK; test: Biacore cross-blocking on immobilised biotinylated TWEAK; binding of antibody 2 after saturation with competitor antibody 1 TW-301chi (row), 100 nM each
Experimental: (§1) Because of the individual biochemical properties of the TWEAK protein another method had to be developed using TWEAK as ligand. Biotinylated TWEAK was immobilized on the streptavidin-coated chip surface and epitope coverage of consecutively injected antibodies (antibody 1) was measured. The aim was to detect the relative binding levels of a secondary antibody (antibody 2) in the presence of an already bound primary antibody. From these relative binding levels a quotient was calculated (Ab2/Ab1, molar ratio given in %, table 7).
(§2) 5 nM of biotinylated TWEAK was immobilized at 20 μl/min for 1 min on a streptavidin coated sensor flow cell. Primary and secondary mAbs were consecutively injected at 10 μl/min for 4 min into the system at 100 nM each until saturation of the respective TWEAK epitopes was achieved. As a reference an SA coated flow cell was used.
(§3) The system was washed with HBS-ET for 20 sec at 30 μl/min followed by two regeneration steps with 1 min at 30 μl/min 6 M GuadHCl and 100 mM HCl. […] The process was repeated by the immobilization of native biotinylated TWEAK protein (feed batch mode) on the same flow cell until the streptavidin sensor surface was completely saturated by biotinylated TWEAK.

[5] = target: T4, Biotinylated human soluble TWEAK (amino …); test: Biacore SPR, biotinylated TWEAK on SA sensor, antibody 100 nM as analyte, 25 C; t1/2 = ln(2)/(60 x kd)
Experimental: A Biacore 2000 instrument was used with a Biacore streptavidin coated sensor mounted into the system. The system buffer HBS-ET (10 mM HEPES pH 7.4, 150 mM NaCl, 1 mM EDTA, 0.05% Tween® 20) was used at a flow rate of 100 μl/min. The sample buffer was the system buffer. Biotinylated human soluble TWEAK (amino acids 99-249 of SEQ ID NO: 60) and biotinylated murine soluble TWEAK (amino acids 81-225 of SEQ ID NO: 61) was immobilized on different flow cells on the SA sensor at 150 RU each. The flow cell FC1 was used as a blank reference cell. Each antibody was injected into the system as an analyte at 100 nM at 100 μl/min for 2 min association time. The dissociation of the immune complexes were monitored for 5 min. The sensor surface was washed with HBS-ET for 10 seconds and regenerated using 2×2 minutes injections with 10 mM glycine pH 2.25. This procedure was done at 25° C. The kinetically rate limiting step of the complex dissociation phase in the interval [240 s-300 s] was taken to calculate the dissociation rate kd [1/s] (Biacore Evaluation Software 4.0). According to the equation t1/2 diss=ln(2)/(60×kd), the half-life of the immunocomplexes in minutes was calculated.

Biotinylated TWEAK [6] = target: T3, Biotinylated TWEAK; test: Biacore cross-blocking on immobilised biotinylated TWEAK; binding of antibody 2 after saturation with competitor antibody 1 TW-304chi (row), 100 nM each
Experimental: as §1, §2, §3

Biotinylated TWEAK [7] = target: T3, Biotinylated TWEAK; test: Biacore cross-blocking on immobilised biotinylated TWEAK; binding of antibody 2 after saturation with competitor antibody 1 TW-305chi (row), 100 nM each
Experimental: as §1, §2, §3

Row | IL-8 Secretion IC50 [1] | IC50 [2] | IC50 [3] | MR % (Ab2/Ab1 molar ratio) (Biotinylated TWEAK [4]) | t/2 diss [5] | MR % (Ab2/Ab1 molar ratio) (Biotinylated TWEAK [6]) | MR % (Ab2/Ab1 molar ratio) (Biotinylated TWEAK [7]) | Binder
1 | 128 ng/mL | 3.4 ng/mL | 4.7 ng/mL |  |  |  |  | TW-301 (antibody, V domains shown, also called Antibody 301; rabbit antibody 301) VH: QSLEESGGGLVKPGASLTLTCTASGFTFNANYWICWVRQAPGKGLEWIACIYGGGNSGAYYASWATGRFTISRTSSTTVTLQMTSLTAADTATYFCARGPISRDLWGPGTLVTVSL VL: DVVMTQTPASVSEPVGGTVTIKCQASQSIYSSLAWYQQKPGQPPKLLIYDAFDLASGVSSRFTGSGSGTQFTLTISDLECADAATYYCQSTDYGNSWDGNPFGGGTEVVVT
2 | 121 ng/mL | 2.8 ng/mL | 6.4 ng/mL | 0% | 110 min | 0% | 0% | TW-301chi (antibody, human IgG1, kappa, V domains shown, also called chimeric antibody 301) VH: QSLEESGGGLVKPGASLTLTCTASGFTFNANYWICWVRQAPGKGLEWIACIYGGGNSGAYYASWATGRFTISRTSSTTVTLQMTSLTAADTATYFCARGPISRDLWGPGTLVTVSL VL: DVVMTQTPASVSEPVGGTVTIKCQASQSIYSSLAWYQQKPGQPPKLLIYDAFDLASGVSSRFTGSGSGTQFTLTISDLECADAATYYCQSTDYGNSWDGNPFGGGTEVVVTR
3 | 104 ng/mL | 2.6 ng/mL |  | 9% | 147 min | 3% | 0% | TW-305chi (antibody, human IgG1, kappa, V domains shown, also called chimeric antibody 305; Antibody 305 (chimeric)) VH: QEQLVESGGGLVQPGGSLTLSCKASGFDFSTYYMSWVRQAPGKGLEWIGTVYVRQGTTYYASWLNGRFTISSDNAQNTVDLKMNSLTAADTATYFCAKGGYNYDDAFVIWGPGTLVTVSF VL: AIEMTQTPFSVSAAVGGTVTINCQASQNIYSNLAWYQQKPGQPPKLLMYTASYLASGVPSRFKGSGSRTEYTLTISGVQCADAATYYCQTAYYNSRPDTVAFGGGTEVVVKR
